Test results taken from IntAct's records for PubMed 23105096.

B1: Ras-related protein Rab-26 (Homo sapiens), Q9ULW5 (parent)
chain: MSRKKTPKSKGASTPAASTLPTANGARPARSGTALSGPDAPPNGPLQPGRPSLGGGVDFYDVAFKVMLVGDSGVGKTCLLVRFKDGAFLAGTFISTVGIDFRNKVLDVDGVKVKLQMWDTAGQERFRSVTHAYYRDAHALLLLYDVTNKASFDNIQAWLTEIHEYAQHDVALMLLGNKVDSAHERVVKREDGEKLAKEYGLPFMETSAKTGLNVDLAFTAIAKELKQRSMKAPSEPRFRLHDYVKREGRGASCCRP

Variants of: B1
Conditions: with ada2b_human ADRA2B

Q: Which “effect of a mutation on the interaction” value does the source give for MSRKKTPKSKGASTPAASTLPTANGARPARSGTALSGPDAPPNGPLQPGRPSLGGGVDFYDVAFKVMLVGDSGVGKTCLLVRFKDGAFLAGTFISTVGIDFRNKVLDVDGVKVKLQMWDTAGQERFRSVTHAYYRDAHALLLLYDVTNKASFDNIQAWLTEIHEYAQHDVALMLLGIKVDSAHERVVKREDGEKLAKEYGLPFMETSAKTGLNVDLAFTAIAKELKQRSMKAPSEPRFRLHDYVKREGRGASCCRP [N177I] here?
A: The value was “decreasing interaction strength”.

Q: For MSRKKTPKSKGASTPAASTLPTANGARPARSGTALSGPDAPPNGPLQPGRPSLGGGVDFYDVAFKVMLVGDSGVGKNCLLVRFKDGAFLAGTFISTVGIDFRNKVLDVDGVKVKLQMWDTAGQERFRSVTHAYYRDAHALLLLYDVTNKASFDNIQAWLTEIHEYAQHDVALMLLGNKVDSAHERVVKREDGEKLAKEYGLPFMETSAKTGLNVDLAFTAIAKELKQRSMKAPSEPRFRLHDYVKREGRGASCCRP [T77N], which “effect of a mutation on the interaction” value is on record?
A: The value was “decreasing interaction strength”.

Variants of: B1
Conditions: with ada2b_human ADRA2B
Remark: another data set of the same source

Q: For MSRKKTPKSKGASTPAASTLPTANGARPARSGTALSGPDAPPNGPLQPGRPSLGGGVDFYDVAFKVMLVGDSGVGKTCLLVRFKDGAFLAGTFISTVGIDFRNKVLDVDGVKVKLQMWDTAGQERFRSVTHAYYRDAHALLLLYDVTNKASFDNIQAWLTEIHEYAQHDVALMLLGIKVDSAHERVVKREDGEKLAKEYGLPFMETSAKTGLNVDLAFTAIAKELKQRSMKAPSEPRFRLHDYVKREGRGASCCRP [N177I], which “effect of a mutation on the interaction” value is on record?
A: The value was “disrupting interaction strength”.
